Laboratory results as given in paper PMC3631189.
Each block holds one substance with its values, some of them ahead of it.

Tests used:
Assay in all cases: SEC; gel permeation chromatography on Superdex-200, purified receptors-Fc loaded in 400 µl, eluted in PBS, absorbance at 280 nm
atacicept = biological target: atacicept
hFn14-Fc (human) = hFn14-Fc (human) (UniProt Q9NP84)
hTACI-Fc = biological target: hTACI-Fc

stoichiometry N (atacicept): 2
Substance: atacicept (Fc fusion)

stoichiometry N (hFn14-Fc (human)): 2
Substance: hFn14-Fc (from UniProt Q9NP84 28-80) (Fc fusion)

stoichiometry N (hTACI-Fc): 2
Substance: hTACI-Fc (Fc fusion)
